The subject of this data set is CN1CCC[C@H]1c1cccnc1. Kind of data set: cells, lysate or membranes named. To be noted: other: nicotine demethylase reaction, yeast microsomes, 25° C., pH 7.1, mean±standard error.

By Km is commonly meant the substrate concentration at which the rate is half of its maximum.

In the case of NtabCYP82E5v2 (Nicotiana tabacum), the Km is 5.6 ± 1.4 µM and the Vmax is on record as 0.7±0.02 nmol min^−1 mg^−1 protein.

The record behind these values is patent publication US11293031B2.
